1 molecule from publication PMC3773400, “Intracellular Secretory Leukoprotease Inhibitor Modulates Inositol 1,4,5-Triphosphate Generation and Exerts an Anti-Inflammatory Effect on Neutrophils of Individuals with Cystic Fibrosis and Chronic Obstructive Pulmonary Disease” (BioMed Research International, 2013) can be followed below.

Test [1] addresses calpain 1 (UniProt P07384 1-714). Briefly: enzyme inhibition kinetics (Calpain-Glo protease assay); cleavage of the calpain substrate Suc-LLVY-aminoluciferin, luminescence; calpastatin 0-80 nM, rhSLPI 0-640 nM; Ki by global curve fit in GraphPad Prism 4.03. Particulars: both partners purified.
Test [2] has as its target calpain 2 (UniProt P17655 20-700). The test is described as above. The conditions noted are these: both partners purified.

In general, Ki refers to a measure of affinity in units of concentration, obtained from inhibition or displacement. The low end stands for higher affinity, the high end for lower affinity.

Sequence of calpain 1 (P07384 2-714, chain 1 of 2): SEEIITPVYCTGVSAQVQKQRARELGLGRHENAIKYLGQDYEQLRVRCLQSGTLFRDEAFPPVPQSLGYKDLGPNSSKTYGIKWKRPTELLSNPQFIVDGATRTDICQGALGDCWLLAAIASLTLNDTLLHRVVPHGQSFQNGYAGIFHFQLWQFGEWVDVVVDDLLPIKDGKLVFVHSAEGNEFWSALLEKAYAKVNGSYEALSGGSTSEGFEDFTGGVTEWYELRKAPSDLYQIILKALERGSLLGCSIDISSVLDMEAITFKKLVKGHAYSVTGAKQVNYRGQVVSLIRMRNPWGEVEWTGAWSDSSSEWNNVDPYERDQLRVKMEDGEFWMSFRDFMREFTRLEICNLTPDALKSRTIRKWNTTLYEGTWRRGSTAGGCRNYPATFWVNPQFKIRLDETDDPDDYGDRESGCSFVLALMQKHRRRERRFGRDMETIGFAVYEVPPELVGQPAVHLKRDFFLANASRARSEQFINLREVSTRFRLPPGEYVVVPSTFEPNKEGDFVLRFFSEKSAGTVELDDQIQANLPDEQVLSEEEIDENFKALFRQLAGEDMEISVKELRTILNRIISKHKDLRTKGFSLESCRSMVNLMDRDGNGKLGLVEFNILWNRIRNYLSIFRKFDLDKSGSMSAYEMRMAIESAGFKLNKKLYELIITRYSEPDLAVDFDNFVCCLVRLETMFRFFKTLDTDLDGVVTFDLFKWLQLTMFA
Sequence of calpain 1 (P04632 whole entry, chain 2 of 2, further chain): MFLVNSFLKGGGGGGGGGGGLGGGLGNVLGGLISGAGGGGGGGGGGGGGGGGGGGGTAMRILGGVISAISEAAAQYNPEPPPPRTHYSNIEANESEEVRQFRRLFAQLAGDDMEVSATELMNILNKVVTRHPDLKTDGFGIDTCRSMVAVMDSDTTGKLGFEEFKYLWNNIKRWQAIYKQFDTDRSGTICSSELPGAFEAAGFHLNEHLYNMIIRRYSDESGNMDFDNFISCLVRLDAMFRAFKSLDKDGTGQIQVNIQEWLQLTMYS

B1: calpastatin (natural protein)
chain: MNPTETKAIPVSQQMEGPHLPNKKKHKKQAVKTEPEKKSQSTKLSVVHEKKSQEGKPKEHTEPKSLPKQASDTGSNDAHNKKAVSRSAEQQPSEKSTEPKTKPQDMISAGGESVAGITAISGKPGDKKKEKKSLTPAVPVESKPDKPSGKSGMDAALDDLIDTLGGPEETEEENTTYTGPEVSDPMSSTYIEELGKREVTIPPKYRELLAKKEGITGPPADSSKPIGPDDAIDALSSDFTCGSPTAAGKKTEKEESTEVLKAQSAGTVRSAAPPQEKKRKVEKDTMSDQALEALSASLGTRQAEPELDLRSIKEVDEAKAKEEKLEKCGEDDETIPSEYRLKPATDKDGKPLLPEPEEKPKPRSESELIDELSEDFDRSECKEKPSKPTEKTEESKAAAPAPVSEAVCRTSMCSIQSAPPEPATLKGTVPDDAVEALADSLGKKEADPEDGKPVMDKVKEKAKEEDREKLGEKEETIPPDYRLEEVKDKDGKPLLPKESKEQLPPMSEDFLLDALSEDFSGPQNASSLKFEDAKLAAAISEVVSQTPASTTQAGAPPRDTSQSDKDLDDALDKLSDSLGQRQPDPDENKPMEDKVKEKAKAEHRDKLGERDDTIPPEYRHLLDDNGQDKPVKPPTKKSEDSKKPADDQDPIDALSGDLDSCPSTTETSQNTAKDKCKKAASSSKAPKNGGKAKDSAKTTEETSKPKDD
modifications: Paper names only 'calpastatin (endogenous calpain inhibitor)'. Supplier, species, isoform and limits are not stated. Full-length human canonical form is assumed; a commercial single inhibitory domain
On to B1, for which the results for the inhibition constant (Ki) in test [1] and in test [2] were 5.55 nM and 1.55 nM, respectively.
